Data published in US20250163140A1 (Kyowa Kirin, published 2025).
Several values for one entry are separate records, joined by “and”; a condition that tells them apart may be missing. Equal values may be shown once. Read-outs that look alike come from different tables or passages of the source.

Experiments:
[1] = molecular target: T1, Recombinant Human FGF-23 (R&D Systems, Cat No. 2604-FG-025/CF) (human, UniProt Q9GZV9 25-251); assay: SPR, antibody captured on Protein A chip, FGF-23 analyte
T1 construct: Bought protein
T1 sequence (looked up): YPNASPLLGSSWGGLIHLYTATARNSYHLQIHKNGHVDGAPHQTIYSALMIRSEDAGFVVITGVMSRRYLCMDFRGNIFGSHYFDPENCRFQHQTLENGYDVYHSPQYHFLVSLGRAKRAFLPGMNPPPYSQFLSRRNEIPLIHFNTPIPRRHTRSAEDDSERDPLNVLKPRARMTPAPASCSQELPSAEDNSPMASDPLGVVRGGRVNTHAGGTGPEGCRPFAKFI

[2] = molecular target: T1, Recombinant Human FGF-23 (R&D Systems, …); assay: cell-based or functional assay
[3] = molecular target: T1, Recombinant Human FGF-23 (R&D Systems, …); assay: cell-based or functional assay; remark: listed apart in the source
[4] = molecular target: T1, Recombinant Human FGF-23 (R&D Systems, …); assay: SPR, antibody captured by anti-human IgG, FGF-23 analyte
[5] = molecular target: T1, Recombinant Human FGF-23 (R&D Systems, …); assay: cell-based or functional assay; remark: listed apart in the source
[6] = molecular target: T2, human FcRn (human FcRn-His tag with human β2 microglobulin) (human, UniProt P55899 24-297; P61769 21-119); assay: SPR pH 6, FcRn-His captured by anti-His, antibody analyte
T2 construct: also called h FcRn; hFcRn
T2 sequence (P55899 other isoform, or with tags, fused parts or gaps limits assumed, chain 1 of 2): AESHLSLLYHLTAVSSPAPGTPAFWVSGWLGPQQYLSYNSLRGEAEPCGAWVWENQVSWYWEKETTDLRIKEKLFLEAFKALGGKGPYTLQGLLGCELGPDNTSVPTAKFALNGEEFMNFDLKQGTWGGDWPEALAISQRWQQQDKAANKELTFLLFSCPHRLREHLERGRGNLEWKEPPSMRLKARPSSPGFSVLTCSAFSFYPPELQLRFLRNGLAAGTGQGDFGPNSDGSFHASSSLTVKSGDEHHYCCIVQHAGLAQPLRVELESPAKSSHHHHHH
T2 sequence (P61769 21-119 limits assumed, chain 2 of 2): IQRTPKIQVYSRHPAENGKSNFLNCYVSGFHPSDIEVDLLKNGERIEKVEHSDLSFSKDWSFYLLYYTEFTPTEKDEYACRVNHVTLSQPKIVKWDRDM

[7] = molecular target: T1, Recombinant Human FGF-23 (R&D Systems, …); assay: SPR, antibody captured by anti-human IgG, FGF-23 analyte; remark: listed apart in the source
[8] = molecular target: T1, Recombinant Human FGF-23 (R&D Systems, …); assay: SPR, antibody captured on Protein A chip, FGF-23 analyte; remark: listed apart in the source
[9] = molecular target: T1, Recombinant Human FGF-23 (R&D Systems, …); assay: SPR, antibody captured by anti-human IgG, FGF-23 analyte; remark: listed apart in the source
[10] = molecular target: T1, Recombinant Human FGF-23 (R&D Systems, …); assay: as above; remark: listed apart in the source
[11] = molecular target: T1, Recombinant Human FGF-23 (R&D Systems, …); assay: cell-based or functional assay; remark: listed apart in the source
[12] = molecular target: T1, Recombinant Human FGF-23 (R&D Systems, …); assay: SPR, antibody captured on Protein A chip, FGF-23 analyte; remark: listed apart in the source
[13] = molecular target: T1, Recombinant Human FGF-23 (R&D Systems, …); assay: cell-based or functional assay; remark: listed apart in the source

B1: antibody A-10 (antibody, V domains shown)
VH: QVQLVQSGAEVKKPGASVKVSCKASGYTFTNHYMHWVRQAPGQGLEWMGIINPISGSTSNAQKFQGRVTMTRDTSTSTVYMELSSLRSEDTAVYYCARDYVDAFDFWGQGTMVTVSS
VL: AIQLTQSPSSLSASVGDRVTITCRASQGISSALVWYQQKPGKAPKLLIYDASSLESGVPSRFSGSGSGTDFTLTISSLQPEDFATYYCQQFYDDFDFGPGTKVDIK
notes: not shown: human kappa chain constant region
In the case of B1, the Kd [1] is reported as 20.2 pM, the “FGF23 neutralizing activity, fold against antibody A” value [2] is reported as 2 fold and the “FGF23 neutralizing activity IC50 (luciferase promoter assay)” value [3] is reported as 1.5 ng/mL.

B2: antibody D105T (antibody, human IgG1, V domains shown)
VH: QVQLVQSGAEVKKPGASVKVSCKASGYTFTNHYMHWVRQAPGQGLEWMGIINPISGSTSNAQKFQGRVTMTRDTSTSTVYMELSSLRSEDTAVYYCARDIVDAFTFWGQGTMVTVSS
VL: AIQLTQSPSSLSASVGDRVTITCRASQGISSALVWYQQKPGKAPKLLIYDASSLESGVPSRFSGSGSGTDFTLTISSLQPEDFATYYCQQFNDYFTFGPGTKVDIK
notes: also called modified antibody D105
In the case of B2, the Kd [4] is reported as 111 pM and the “FGF23 neutralizing activity IC50 (luciferase promoter assay)” value [5] is reported as over 100 ng/mL.

B3: antibody A_G2_LS (antibody)
heavy: QVQLVQSGAEVKKPGASVKVSCKASGYTFTNHYMHWVRQAPGQGLEWMGIINPISGSTSNAQKFQGRVTMTRDTSTSTVYMELSSLRSEDTAVYYCARDIVDAFDFWGQGTMVTVSSASTKGPSVFPLAPCSRSTSESTAALGCLVKDYFPEPVTVSWNSGALTSGVHTFPAVLQSSGLYSLSSVVTVPSSNFGTQTYTCNVDHKPSNTKVDKTVERKCCVECPPCPAPPVAGPSVFLFPPKPKDTLMISRTPEVTCVVVDVSHEDPEVQFNWYVDGVEVHNAKTKPREEQFNSTFRVVSVLTVVHQDWLNGKEYKCKVSNKGLPAPIEKTISKTKGQPREPQVYTLPPSREEMTKNQVSLTCLVKGFYPSDIAVEWESNGQPENNYKTTPPMLDSDGSFFLYSKLTVDKSRWQQGNVFSCSVLHEALHSHYTQKSLSLSPGK
light: AIQLTQSPSSLSASVGDRVTITCRASQGISSALVWYQQKPGKAPKLLIYDASSLESGVPSRFSGSGSGTDFTLTISSLQPEDFATYYCQQFNDYFTFGPGTKVDIK
notes: not shown: human kappa chain constant region; copies: 2 + 2
B3 gave a Kd [6] of 310000 pM.

B4: antibody A_IgG4PE_R409K_LS (antibody)
heavy: QVQLVQSGAEVKKPGASVKVSCKASGYTFTNHYMHWVRQAPGQGLEWMGIINPISGSTSNAQKFQGRVTMTRDTSTSTVYMELSSLRSEDTAVYYCARDIVDAFDFWGQGTMVTVSSASTKGPSVFPLAPCSRSTSESTAALGCLVKDYFPEPVTVSWNSGALTSGVHTFPAVLQSSGLYSLSSVVTVPSSSLGTKTYTCNVDHKPSNTKVDKRVESKYGPPCPPCPAPEFEGGPSVFLFPPKPKDTLMISRTPEVTCVVVDVSQEDPEVQFNWYVDGVEVHNAKTKPREEQFNSTYRVVSVLTVLHQDWLNGKEYKCKVSNKGLPSSIEKTISKAKGQPREPQVYTLPPSQEEMTKNQVSLTCLVKGFYPSDIAVEWESNGQPENNYKTTPPVLDSDGSFFLYSKLTVDKSRWQEGNVFSCSVLHEALHSHYTQKSLSLSLGK
light: AIQLTQSPSSLSASVGDRVTITCRASQGISSALVWYQQKPGKAPKLLIYDASSLESGVPSRFSGSGSGTDFTLTISSLQPEDFATYYCQQFNDYFTFGPGTKVDIK
notes: as for B3
B4 gave a Kd [6] of 116000 pM.

B5: antibody I100Y (antibody, human IgG1, V domains shown)
VH: QVQLVQSGAEVKKPGASVKVSCKASGYTFTNHYMHWVRQAPGQGLEWMGIINPISGSTSNAQKFQGRVTMTRDTSTSTVYMELSSLRSEDTAVYYCARDYVDAFDFWGQGTMVTVSS
VL: AIQLTQSPSSLSASVGDRVTITCRASQGISSALVWYQQKPGKAPKLLIYDASSLESGVPSRFSGSGSGTDFTLTISSLQPEDFATYYCQQFNDYFTFGPGTKVDIK
notes: also called modified antibody I100
B5 was tested, and the Kd [7] was 18.6 pM and the “FGF23 neutralizing activity IC50 (luciferase promoter assay)” value [5] was 3 ng/mL.

B6: antibody A-9 (antibody, V domains shown)
VH: QVQLVQSGAEVKKPGASVKVSCKASGYTFTNHYMHWVRQAPGQGLEWMGIINPISGSTSNAQKFQGRVTMTRDTSTSTVYMELSSLRSEDTAVYYCARDAVDAFDFWGQGTMVTVSS
VL: AIQLTQSPSSLSASVGDRVTITCRASQGISSALVWYQQKPGKAPKLLIYDASSLESGVPSRFSGSGSGTDFTLTISSLQPEDFATYYCQQFWDDFDFGPGTKVDIK
notes: as for B1
With B6 the Kd [1] was 6.87 pM, the “FGF23 neutralizing activity, fold against antibody A” value [2] was 3 fold and the “fold antigen binding activity against antibody A” value [8] was 2 fold. The “FGF23 neutralizing activity IC50 (luciferase promoter assay)” value [3] was 1 ng/mL.

B7: antibody I100A (antibody, human IgG1, V domains shown)
VH: QVQLVQSGAEVKKPGASVKVSCKASGYTFTNHYMHWVRQAPGQGLEWMGIINPISGSTSNAQKFQGRVTMTRDTSTSTVYMELSSLRSEDTAVYYCARDAVDAFDFWGQGTMVTVSS
VL: AIQLTQSPSSLSASVGDRVTITCRASQGISSALVWYQQKPGKAPKLLIYDASSLESGVPSRFSGSGSGTDFTLTISSLQPEDFATYYCQQFNDYFTFGPGTKVDIK
notes: as for B5
Work on B7 yielded a Kd [9] of 28.9 pM, a Kd [10] of 14 pM and a Kd [7] of 25.1 pM. The “FGF23 neutralizing activity IC50 (luciferase promoter assay)” value [5] was 5.1 ng/mL.

B8: antibody D105A (antibody, human IgG1, V domains shown)
VH: QVQLVQSGAEVKKPGASVKVSCKASGYTFTNHYMHWVRQAPGQGLEWMGIINPISGSTSNAQKFQGRVTMTRDTSTSTVYMELSSLRSEDTAVYYCARDIVDAFAFWGQGTMVTVSS
VL: AIQLTQSPSSLSASVGDRVTITCRASQGISSALVWYQQKPGKAPKLLIYDASSLESGVPSRFSGSGSGTDFTLTISSLQPEDFATYYCQQFNDYFTFGPGTKVDIK
notes: as for B2
With B8 the Kd [4] was 108 pM and the “FGF23 neutralizing activity IC50 (luciferase promoter assay)” value [5] was over 100 ng/mL.

B9: antibody I100V (antibody, human IgG1, V domains shown)
VH: QVQLVQSGAEVKKPGASVKVSCKASGYTFTNHYMHWVRQAPGQGLEWMGIINPISGSTSNAQKFQGRVTMTRDTSTSTVYMELSSLRSEDTAVYYCARDVVDAFDFWGQGTMVTVSS
VL: AIQLTQSPSSLSASVGDRVTITCRASQGISSALVWYQQKPGKAPKLLIYDASSLESGVPSRFSGSGSGTDFTLTISSLQPEDFATYYCQQFNDYFTFGPGTKVDIK
notes: as for B5
Work on B9 yielded a Kd [10] of 4.73 pM.

B10: antibody A_LS (antibody, human IgG1, name in EU numbering)
heavy: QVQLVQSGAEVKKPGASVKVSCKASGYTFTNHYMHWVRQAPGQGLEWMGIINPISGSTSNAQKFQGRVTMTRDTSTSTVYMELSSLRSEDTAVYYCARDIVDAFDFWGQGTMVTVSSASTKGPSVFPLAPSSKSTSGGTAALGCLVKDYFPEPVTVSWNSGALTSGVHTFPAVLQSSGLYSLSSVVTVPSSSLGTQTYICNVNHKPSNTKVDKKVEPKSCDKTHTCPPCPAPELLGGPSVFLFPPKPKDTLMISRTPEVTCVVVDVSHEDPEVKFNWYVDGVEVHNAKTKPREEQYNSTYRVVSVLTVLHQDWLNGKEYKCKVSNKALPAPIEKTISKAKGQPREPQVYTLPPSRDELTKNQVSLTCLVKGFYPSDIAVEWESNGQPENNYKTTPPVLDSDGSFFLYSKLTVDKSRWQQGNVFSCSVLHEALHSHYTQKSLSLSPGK
light: AIQLTQSPSSLSASVGDRVTITCRASQGISSALVWYQQKPGKAPKLLIYDASSLESGVPSRFSGSGSGTDFTLTISSLQPEDFATYYCQQFNDYFTFGPGTKVDIK
notes: positions are EU index; not shown: human kappa chain constant region; copies: 2 + 2
B10 showed a Kd [6] of 142000 pM.

B11: antibody I100L (antibody, human IgG1, V domains shown)
VH: QVQLVQSGAEVKKPGASVKVSCKASGYTFTNHYMHWVRQAPGQGLEWMGIINPISGSTSNAQKFQGRVTMTRDTSTSTVYMELSSLRSEDTAVYYCARDLVDAFDFWGQGTMVTVSS
VL: AIQLTQSPSSLSASVGDRVTITCRASQGISSALVWYQQKPGKAPKLLIYDASSLESGVPSRFSGSGSGTDFTLTISSLQPEDFATYYCQQFNDYFTFGPGTKVDIK
notes: as for B5
B11 was tested, and the Kd [10] was 12.6 pM.

B12: antibody A (antibody, human IgG1)
heavy: not shown
light: AIQLTQSPSSLSASVGDRVTITCRASQGISSALVWYQQKPGKAPKLLIYDASSLESGVPSRFSGSGSGTDFTLTISSLQPEDFATYYCQQFNDYFTFGPGTKVDIK
notes: Human IgG1 antibody, kappa light chain; also called A_1; A_2; not shown: human kappa chain constant region
For B12, the “FGF23 neutralizing activity IC50 (luciferase promoter assay)” value [11] was 1.2 ng/mL, the Kd [9] was 3.76 pM and 4.15 pM and the Kd [1] was 14.4 pM. It also gave a Kd [10] of 4.51 pM, a kon [10] of 9.12e+07 M⁻¹ s⁻¹ and a Kd [4] of 9.93 pM. For the same binder, the Kd [7] was 2.06 pM and 2.6 pM and 3.76 pM, the “FGF23 neutralizing activity IC50 (luciferase promoter assay)” value [5] was 1.4 ng/mL and the Kd [12] was 8.77 pM. For the same binder, the “FGF23 neutralizing activity IC50 (luciferase promoter assay)” value [13] was 3.3 ng/mL, the “FGF23 neutralizing activity IC50 (luciferase promoter assay), antibody A in same measurement lot” value [13] was 3.1 ng/mL and 3.3 ng/mL and the “FGF23 neutralizing activity IC50 (luciferase promoter assay)” value [3] was 3.2 ng/mL. The “FGF23 neutralizing activity IC50 (luciferase promoter assay), antibody A in same measurement lot” value [3] was 3.2 ng/mL and 2.8 ng/mL.
